75 sequences from the supplement of paper PMC7877785 can be followed below.

This data set can be described thus: self-splicing fitness, log relative to wild type (ln ratio); higher = more splicing; Tetrahymena group I intron in knt gene, E. coli kanamycin selection, DiMSum; sequences stand for … in CUCUCU…GGAGGGAAAAGUUAUCAGGCAUGCACCUGGUAGCUAGUCUUUAAACCAAUAGAUUGCAUCGGUUUAAAAGGCAAGACCGUCAAAUUGCGGGAAAGGGGUCAACAGCCGUUCAGUACCAAGUCUCAGGGGAAACUUUGAGAUGGCCUUGCAAAGGGUAUGGUAAUAAGCUGACGGACAUGGUCCUAACCACGCAGCCAAGUCCUAAGUCAACAGAUCUUCUGUUGAUAUGGAUGCAGUUCACAGACUAAAUGUCGGUCGGGGAAGAUGUAUUCUUCUCAUAAGAUAUAGUCGGACCUCUCCUUAAUGGGAGCUAGCGGAUGAAGUGAUGCAACACUGGAGCCGCUGGGAACUAAUUUGUAUGCGAAAGUAUAUUGAUUAGUUUUGGAGUACUCGUGGUCG
In outline: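 Pooled colonies went to amplicon sequencing on an Illumina HiSeq 2500 after six replicate transformations. The plates were LB agar with 100 μg/mL carbenicillin, 50 μM IPTG and 0.2% rhamnose, with or without 25 μg/mL kanamycin, incubated overnight at 37°C or 30°C. The E. coli BL21(DE3) library had all eight P1ex-region intron nucleotides randomised, the intron placed in the knt kanamycin-resistance gene on pET-22b(+). DiMSum fitness is the error-weighted combination of replicate fold changes, kanamycin against none, normalised to wild type.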

± gives the uncertainty stated by the source.

Regarding ACAGAGCAAUAUUACGAAGG, the “self-splicing fitness (ln)” value was -3.82 ± 0.23 (30 °C) and -3.32 ± 0.33 (37 °C).
On to ACAGAGCAAUAUUACGACGG, for which the “self-splicing fitness (ln)” value by setting is: (30 °C) -2.78 ± 0.24; (37 °C) -1.65 ± 0.27.
The matching figures for ACAGAGCAAUAUUACGACUA: -1.17 ± 0.48 and -1.17 ± 0.42.
With ACAGAGCAAUAUUACGAGAA, the “self-splicing fitness (ln)” value (30 °C) is -2.03 ± 0.45.
For ACAGAGCAAUAUUACGAGCA, the “self-splicing fitness (ln)” value runs as follows: (30 °C) -3.84 ± 0.28; (37 °C) -2.83 ± 0.31.
On the same counts, the results for ACAGAGCAAUAUUACGAGGG are -2.31 ± 0.14 and -2.35 ± 0.24.
As for ACAGAGCAAUAUUACGAUGC, the “self-splicing fitness (ln)” value by setting is: (30 °C) -2.74 ± 0.14; (37 °C) -2.47 ± 0.29.
On to ACAGAGCAAUAUUACGCAUC, for which the “self-splicing fitness (ln)” value (30 °C) was -4.07 ± 0.25 and the “self-splicing fitness (ln)” value (37 °C) was -2.59 ± 0.23.
Regarding ACAGAGCAAUAUUACGCCGU, the “self-splicing fitness (ln)” value (30 °C) was -2.59 ± 0.35 and the “self-splicing fitness (ln)” value (37 °C) was -0.807 ± 0.33.
ACAGAGCAAUAUUACGCGUC: the “self-splicing fitness (ln)” value (37 °C) is -2.07 ± 0.29.
For the sequence ACAGAGCAAUAUUACGCUUC, the “self-splicing fitness (ln)” value is, setting by setting: (30 °C) -3.96 ± 0.24; (37 °C) -2.16 ± 0.3.
On the same counts, the results for ACAGAGCAAUAUUACGGAUG are -4.02 ± 0.31 and -3.37 ± 0.37.
On the same counts, the results for ACAGAGCAAUAUUACGGCGA are -3.14 ± 0.31 and -1.17 ± 0.17.
On the same counts, the results for ACAGAGCAAUAUUACGGCUA are -3.1 ± 0.23 and -1.41 ± 0.14.
ACAGAGCAAUAUUACGGGAG: the “self-splicing fitness (ln)” value reads like this: (30 °C) -3.51 ± 0.28; (37 °C) -1.62 ± 0.21.
On the same counts, the results for ACAGAGCAAUAUUACGGGCA are -2.58 ± 0.19 and -0.773 ± 0.15.
The matching figures for ACAGAGCAAUAUUACGGGCU: -3.02 ± 0.22 and -2.58 ± 0.2.
On the same counts, the results for ACAGAGCAAUAUUACGGUAU are -4.21 ± 0.36 and -3.75 ± 0.26.
Take ACAGAGCAAUAUUACGGUGG: the “self-splicing fitness (ln)” value (30 °C) was -4.17 ± 0.23 and the “self-splicing fitness (ln)” value (37 °C) was -3.01 ± 0.32.
Consider ACAGAGCAAUAUUACGUAAU, for which the “self-splicing fitness (ln)” value was -3.43 ± 0.4 (30 °C) and -2.5 ± 0.41 (37 °C).
On the same counts, the results for ACAGAGCAAUAUUACGUAUU are -3.66 ± 0.23 and -2.84 ± 0.27.
Turning to ACAUAGCAAUAUUACGAAUG, the “self-splicing fitness (ln)” value runs as follows: (30 °C) -1.65 ± 0.1; (37 °C) -1.22 ± 0.13.
The matching figures for ACAUAGCAAUAUUACGAUAG: -3.38 ± 0.19 and -1.36 ± 0.17.
On the same counts, the results for ACAUAGCAAUAUUACGCACC are -1.83 ± 0.18 and 0.273 ± 0.18.
On the same counts, the results for ACAUAGCAAUAUUACGCAUA are -3.01 ± 0.17 and -1.85 ± 0.12.
As to ACAUAGCAAUAUUACGCAUG, the “self-splicing fitness (ln)” value is, setting by setting: (30 °C) -2.85 ± 0.13; (37 °C) -1.15 ± 0.12.
The matching figures for ACAUAGCAAUAUUACGCCCG: -0.76 ± 0.16 and -0.298 ± 0.15.
Turning to ACAUAGCAAUAUUACGCGCU, the “self-splicing fitness (ln)” value was -1.19 ± 0.095 (30 °C) and -0.534 ± 0.098 (37 °C).
On the same counts, the results for ACAUAGCAAUAUUACGCGGC are -3.77 ± 0.18 and -2.8 ± 0.3.
The matching figures for ACAUAGCAAUAUUACGCGUU: -3.55 ± 0.24 and -2.39 ± 0.15.
The matching figures for ACAUAGCAAUAUUACGCUCA: -0.539 ± 0.11 and -0.358 ± 0.12.
As for ACAUAGCAAUAUUACGCUUC, the “self-splicing fitness (ln)” value was -3 ± 0.29 (30 °C) and -1.82 ± 0.28 (37 °C).
In the case of ACAUAGCAAUAUUACGGAAA, the “self-splicing fitness (ln)” value was -2.14 ± 0.26 (30 °C) and -2.11 ± 0.2 (37 °C).
On the same counts, the results for ACAUAGCAAUAUUACGGACA are -1.57 ± 0.16 and -0.382 ± 0.14.
Consider ACAUAGCAAUAUUACGGAGA, for which the “self-splicing fitness (ln)” value is -3.28 ± 0.25 (30 °C) and -2.47 ± 0.24 (37 °C).
For the sequence ACAUAGCAAUAUUACGGGCU, the “self-splicing fitness (ln)” value (30 °C) is -1.4 ± 0.13 and the “self-splicing fitness (ln)” value (37 °C) is -0.715 ± 0.16.
The matching figures for ACAUAGCAAUAUUACGGUCU: -1.46 ± 0.071 and -0.428 ± 0.089.
With ACAUAGCAAUAUUACGGUUC, the “self-splicing fitness (ln)” value is, setting by setting: (30 °C) -2.93 ± 0.17; (37 °C) -2.51 ± 0.24.
On the same counts, the results for ACAUAGCAAUAUUACGUAUU are -4.38 ± 0.21 and -2.78 ± 0.23.
The matching figures for ACAUAGCAAUAUUACGUUCA: -1.39 ± 0.095 and -0.808 ± 0.13.
The matching figures for ACAUAGCAAUAUUACGUUGG: -3.23 ± 0.2 and -2.29 ± 0.14.
Take ACCAAGCAAUAUUACGAGAC: the “self-splicing fitness (ln)” value reads like this: (30 °C) -3.68 ± 0.18; (37 °C) -2.86 ± 0.21.
On the same counts, the results for ACCAAGCAAUAUUACGAGGC are -3.14 ± 0.14 and -2.32 ± 0.22.
The matching figures for ACCAAGCAAUAUUACGAGGU: -3.76 ± 0.21 and -2.22 ± 0.18.
The matching figures for ACCAAGCAAUAUUACGAUGG: -1.76 ± 0.076 and -0.995 ± 0.12.
In the case of ACCAAGCAAUAUUACGCAAA, the “self-splicing fitness (ln)” value (30 °C) is -1.56 ± 0.12 and the “self-splicing fitness (ln)” value (37 °C) is -1.74 ± 0.15.
On the same counts, the results for ACCAAGCAAUAUUACGCAAU are -2.01 ± 0.1 and -1.04 ± 0.1.
On the same counts, the results for ACCAAGCAAUAUUACGCACA are -0.684 ± 0.075 and 0.0111 ± 0.087.
On the same counts, the results for ACCAAGCAAUAUUACGCAGA are -2.84 ± 0.25 and -0.709 ± 0.14.
In the case of ACCAAGCAAUAUUACGCAUG, the “self-splicing fitness (ln)” value runs as follows: (30 °C) -3.75 ± 0.11; (37 °C) -2.2 ± 0.11.
As to ACCAAGCAAUAUUACGCGCC, the “self-splicing fitness (ln)” value is -1.35 ± 0.11 (30 °C) and 0.198 ± 0.14 (37 °C).
The matching figures for ACCAAGCAAUAUUACGCGGC: -3.19 ± 0.25 and -2.39 ± 0.21.
On the same counts, the results for ACCAAGCAAUAUUACGCGGU are -3.54 ± 0.12 and -2.84 ± 0.16.
The matching figures for ACCAAGCAAUAUUACGCUAG: -2.03 ± 0.071 and -1.52 ± 0.1.
As to ACCAAGCAAUAUUACGGAGA, the “self-splicing fitness (ln)” value (30 °C) was -3.16 ± 0.15 and the “self-splicing fitness (ln)” value (37 °C) was -1.66 ± 0.11.
The matching figures for ACCAAGCAAUAUUACGGAUG: -2.47 ± 0.069 and -2.48 ± 0.088.
On the same counts, the results for ACCAAGCAAUAUUACGGCCA are -0.654 ± 0.099 and 0.134 ± 0.12.
As to ACCAAGCAAUAUUACGGCUG, the “self-splicing fitness (ln)” value (30 °C) is -1.55 ± 0.068 and the “self-splicing fitness (ln)” value (37 °C) is -0.288 ± 0.081.
As to ACCAAGCAAUAUUACGGUCC, the “self-splicing fitness (ln)” value (30 °C) is -2.8 ± 0.12 and the “self-splicing fitness (ln)” value (37 °C) is -1.07 ± 0.12.
On the same counts, the results for ACCAAGCAAUAUUACGUACG are -2.52 ± 0.083 and -1.28 ± 0.092.
On the same counts, the results for ACCAAGCAAUAUUACGUAGC are -3.58 ± 0.13 and -2.44 ± 0.13.
On the same counts, the results for ACCAAGCAAUAUUACGUGGG are -3.46 ± 0.13 and -2.4 ± 0.11.
On to ACCAAGCAAUAUUACGUUAU, for which the “self-splicing fitness (ln)” value is -2.95 ± 0.087 (30 °C) and -2.04 ± 0.093 (37 °C).
On the same counts, the results for ACCAAGCAAUAUUACGUUGG are -3.54 ± 0.12 and -2.22 ± 0.14.
Regarding ACCCAGCAAUAUUACGAACA, the “self-splicing fitness (ln)” value (30 °C) was -0.802 ± 0.11 and the “self-splicing fitness (ln)” value (37 °C) was -1.35 ± 0.13.
On the same counts, the results for ACCCAGCAAUAUUACGACAA are -1.66 ± 0.1 and -1.09 ± 0.1.
As to ACCCAGCAAUAUUACGACCG, the “self-splicing fitness (ln)” value by setting is: (30 °C) -2.05 ± 0.17; (37 °C) -0.527 ± 0.18.
On the same counts, the results for ACCCAGCAAUAUUACGAGUA are -2.39 ± 0.12 and -1.02 ± 0.079.
On the same counts, the results for ACCCAGCAAUAUUACGCGGC are -2.93 ± 0.17 and -2.76 ± 0.26.
The matching figures for ACCCAGCAAUAUUACGCGUU: -0.424 ± 0.049 and 0.328 ± 0.066.
ACCCAGCAAUAUUACGCUCA: the “self-splicing fitness (ln)” value was -0.397 ± 0.065 (30 °C) and -0.324 ± 0.087 (37 °C).
The matching figures for ACCCAGCAAUAUUACGGAAU: -0.884 ± 0.054 and -0.0542 ± 0.07.
The matching figures for ACCCAGCAAUAUUACGGCCU: -0.518 ± 0.052 and 0.0547 ± 0.067.
On the same counts, the results for ACCCAGCAAUAUUACGGCUA are -0.684 ± 0.1 and 0.23 ± 0.1.
On to ACCCAGCAAUAUUACGUAAG, for which the “self-splicing fitness (ln)” value runs as follows: (30 °C) -1.13 ± 0.049; (37 °C) -0.47 ± 0.069.
